Measured values as given in paper PMC2814163 (Biochemistry, 2010).
Like-named read-outs stand apart in the source and are kept apart here.

T1: human β-glucuronidase (human, UniProt P08236 23-651, mannose 6-phosphate on its glycans (Man-6-P-containing lysosomal enzyme; nonphosphorylated enzyme removed))
T1 sequence (looked up): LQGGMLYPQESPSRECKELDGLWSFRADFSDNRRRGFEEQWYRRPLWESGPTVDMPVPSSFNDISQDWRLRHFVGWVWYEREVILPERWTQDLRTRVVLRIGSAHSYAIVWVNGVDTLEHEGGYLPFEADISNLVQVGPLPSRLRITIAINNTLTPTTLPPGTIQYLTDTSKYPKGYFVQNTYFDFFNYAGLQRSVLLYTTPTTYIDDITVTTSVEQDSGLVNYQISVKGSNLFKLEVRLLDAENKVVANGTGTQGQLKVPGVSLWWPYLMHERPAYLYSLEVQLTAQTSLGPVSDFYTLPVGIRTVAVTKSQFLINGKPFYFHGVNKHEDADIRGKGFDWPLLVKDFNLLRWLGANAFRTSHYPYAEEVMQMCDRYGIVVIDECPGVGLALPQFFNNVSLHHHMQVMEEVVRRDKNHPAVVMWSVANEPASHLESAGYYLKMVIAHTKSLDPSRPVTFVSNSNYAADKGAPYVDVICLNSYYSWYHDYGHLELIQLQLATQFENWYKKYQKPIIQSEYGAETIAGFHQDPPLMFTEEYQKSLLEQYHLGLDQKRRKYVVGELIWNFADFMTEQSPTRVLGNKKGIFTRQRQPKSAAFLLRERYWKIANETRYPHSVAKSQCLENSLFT

B1: Dom1-3His (extracytoplasmic domains 1-3 of the bovine CI-MPR, residues 1-432, C-terminal His6) (domain or fragment, UniProt P08169 45-476, looked up)
chain: AAGTQGAEFPELCSYTWEAVDTKNNMLYKINICGNMGVAQCGPSSAVCMHDLKTDSFHSVGDSLLKTASRSLLEFNTTVNCKQQNHKIQSSITFLCGKTLGTPEFVTATDCVHYFEWRTTAACKKNIFKANKEVPCYAFDRELKKHDLNPLIKTSGAYLVDDSDPDTSLFINVCRDIEVLRASSPQVRVCPTGAAACLVRGDRAFDVGRPQEGLKLVSNDRLVLSYVKEGAGQPDFCDGHSPAVTITFVCPSERREGTIPKLTAKSNCRFEIEWVTEYACHRDYLESRSCSLSSAQHDVAVDLQPLSRVEASDSLFYTSEADEYTYYLSICGGSQAPICNKKDAAVCQVKKADSTQVKVAGRPQNLTLRYSDGDLTLIYFGGEECSSGFQRMSVINFECNQTAGNNGRGAPVFTGEVDCTYFFTWDTKYACV

Columns and labels:
Test in all cases: SPR
[1] = biological target: human prothrombin (human, plasma-purified zymogen; gamma-carboxyglutamate in Gla domain, N-glycosylated, disulfides (by convention, not given))
[2] = biological target: T1, human β-glucuronidase
[3] = biological target: T1, human β-glucuronidase; remark: listed apart in the source
[4] = biological target: B1

Binder	Kd [3]	other results
B1		Kd [1]: > 2500 nM; Kd [2]: 10 ± 2 nM
Dom1-3HisR118A (domain or fragment, bovine, UniProt P08169 45-476, looked up) AAGTQGAEFPELCSYTWEAVDTKNNMLYKINICGNMGVAQCGPSSAVCMHDLKTDSFHSVGDSLLKTASRSLLEFNTTVNCKQQNHKIQSSITFLCGKTLGTPEFVTATDCVHYFEWATTAACKKNIFKANKEVPCYAFDRELKKHDLNPLIKTSGAYLVDDSDPDTSLFINVCRDIEVLRASSPQVRVCPTGAAACLVRGDRAFDVGRPQEGLKLVSNDRLVLSYVKEGAGQPDFCDGHSPAVTITFVCPSERREGTIPKLTAKSNCRFEIEWVTEYACHRDYLESRSCSLSSAQHDVAVDLQPLSRVEASDSLFYTSEADEYTYYLSICGGSQAPICNKKDAAVCQVKKADSTQVKVAGRPQNLTLRYSDGDLTLIYFGGEECSSGFQRMSVINFECNQTAGNNGRGAPVFTGEVDCTYFFTWDTKYACV	12 ± 1 nM	
Dom1-3HisK132A (domain or fragment, bovine, UniProt P08169 45-476, looked up) AAGTQGAEFPELCSYTWEAVDTKNNMLYKINICGNMGVAQCGPSSAVCMHDLKTDSFHSVGDSLLKTASRSLLEFNTTVNCKQQNHKIQSSITFLCGKTLGTPEFVTATDCVHYFEWRTTAACKKNIFKANAEVPCYAFDRELKKHDLNPLIKTSGAYLVDDSDPDTSLFINVCRDIEVLRASSPQVRVCPTGAAACLVRGDRAFDVGRPQEGLKLVSNDRLVLSYVKEGAGQPDFCDGHSPAVTITFVCPSERREGTIPKLTAKSNCRFEIEWVTEYACHRDYLESRSCSLSSAQHDVAVDLQPLSRVEASDSLFYTSEADEYTYYLSICGGSQAPICNKKDAAVCQVKKADSTQVKVAGRPQNLTLRYSDGDLTLIYFGGEECSSGFQRMSVINFECNQTAGNNGRGAPVFTGEVDCTYFFTWDTKYACV	35 ± 4 nM	
Dom1-3HisK82A (domain or fragment, bovine, UniProt P08169 45-476, looked up) AAGTQGAEFPELCSYTWEAVDTKNNMLYKINICGNMGVAQCGPSSAVCMHDLKTDSFHSVGDSLLKTASRSLLEFNTTVNCAQQNHKIQSSITFLCGKTLGTPEFVTATDCVHYFEWRTTAACKKNIFKANKEVPCYAFDRELKKHDLNPLIKTSGAYLVDDSDPDTSLFINVCRDIEVLRASSPQVRVCPTGAAACLVRGDRAFDVGRPQEGLKLVSNDRLVLSYVKEGAGQPDFCDGHSPAVTITFVCPSERREGTIPKLTAKSNCRFEIEWVTEYACHRDYLESRSCSLSSAQHDVAVDLQPLSRVEASDSLFYTSEADEYTYYLSICGGSQAPICNKKDAAVCQVKKADSTQVKVAGRPQNLTLRYSDGDLTLIYFGGEECSSGFQRMSVINFECNQTAGNNGRGAPVFTGEVDCTYFFTWDTKYACV	17 ± 2 nM	
Dom1-3HisK125A (domain or fragment, bovine, UniProt P08169 45-476, looked up) AAGTQGAEFPELCSYTWEAVDTKNNMLYKINICGNMGVAQCGPSSAVCMHDLKTDSFHSVGDSLLKTASRSLLEFNTTVNCKQQNHKIQSSITFLCGKTLGTPEFVTATDCVHYFEWRTTAACKANIFKANKEVPCYAFDRELKKHDLNPLIKTSGAYLVDDSDPDTSLFINVCRDIEVLRASSPQVRVCPTGAAACLVRGDRAFDVGRPQEGLKLVSNDRLVLSYVKEGAGQPDFCDGHSPAVTITFVCPSERREGTIPKLTAKSNCRFEIEWVTEYACHRDYLESRSCSLSSAQHDVAVDLQPLSRVEASDSLFYTSEADEYTYYLSICGGSQAPICNKKDAAVCQVKKADSTQVKVAGRPQNLTLRYSDGDLTLIYFGGEECSSGFQRMSVINFECNQTAGNNGRGAPVFTGEVDCTYFFTWDTKYACV	26 ± 2 nM	
Dom1-3HisK215A (domain or fragment, bovine, UniProt P08169 45-476, looked up) AAGTQGAEFPELCSYTWEAVDTKNNMLYKINICGNMGVAQCGPSSAVCMHDLKTDSFHSVGDSLLKTASRSLLEFNTTVNCKQQNHKIQSSITFLCGKTLGTPEFVTATDCVHYFEWRTTAACKKNIFKANKEVPCYAFDRELKKHDLNPLIKTSGAYLVDDSDPDTSLFINVCRDIEVLRASSPQVRVCPTGAAACLVRGDRAFDVGRPQEGLALVSNDRLVLSYVKEGAGQPDFCDGHSPAVTITFVCPSERREGTIPKLTAKSNCRFEIEWVTEYACHRDYLESRSCSLSSAQHDVAVDLQPLSRVEASDSLFYTSEADEYTYYLSICGGSQAPICNKKDAAVCQVKKADSTQVKVAGRPQNLTLRYSDGDLTLIYFGGEECSSGFQRMSVINFECNQTAGNNGRGAPVFTGEVDCTYFFTWDTKYACV	18 ± 2 nM	
Dom1-3HisK53A (domain or fragment, bovine, UniProt P08169 45-476, looked up) AAGTQGAEFPELCSYTWEAVDTKNNMLYKINICGNMGVAQCGPSSAVCMHDLATDSFHSVGDSLLKTASRSLLEFNTTVNCKQQNHKIQSSITFLCGKTLGTPEFVTATDCVHYFEWRTTAACKKNIFKANKEVPCYAFDRELKKHDLNPLIKTSGAYLVDDSDPDTSLFINVCRDIEVLRASSPQVRVCPTGAAACLVRGDRAFDVGRPQEGLKLVSNDRLVLSYVKEGAGQPDFCDGHSPAVTITFVCPSERREGTIPKLTAKSNCRFEIEWVTEYACHRDYLESRSCSLSSAQHDVAVDLQPLSRVEASDSLFYTSEADEYTYYLSICGGSQAPICNKKDAAVCQVKKADSTQVKVAGRPQNLTLRYSDGDLTLIYFGGEECSSGFQRMSVINFECNQTAGNNGRGAPVFTGEVDCTYFFTWDTKYACV	17 ± 2 nM	
Dom1-3HisK23A (domain or fragment, bovine, UniProt P08169 45-476, looked up) AAGTQGAEFPELCSYTWEAVDTANNMLYKINICGNMGVAQCGPSSAVCMHDLKTDSFHSVGDSLLKTASRSLLEFNTTVNCKQQNHKIQSSITFLCGKTLGTPEFVTATDCVHYFEWRTTAACKKNIFKANKEVPCYAFDRELKKHDLNPLIKTSGAYLVDDSDPDTSLFINVCRDIEVLRASSPQVRVCPTGAAACLVRGDRAFDVGRPQEGLKLVSNDRLVLSYVKEGAGQPDFCDGHSPAVTITFVCPSERREGTIPKLTAKSNCRFEIEWVTEYACHRDYLESRSCSLSSAQHDVAVDLQPLSRVEASDSLFYTSEADEYTYYLSICGGSQAPICNKKDAAVCQVKKADSTQVKVAGRPQNLTLRYSDGDLTLIYFGGEECSSGFQRMSVINFECNQTAGNNGRGAPVFTGEVDCTYFFTWDTKYACV	14 ± 1 nM	
Dom1-3HisK98A (domain or fragment, bovine, UniProt P08169 45-476, looked up) AAGTQGAEFPELCSYTWEAVDTKNNMLYKINICGNMGVAQCGPSSAVCMHDLKTDSFHSVGDSLLKTASRSLLEFNTTVNCKQQNHKIQSSITFLCGATLGTPEFVTATDCVHYFEWRTTAACKKNIFKANKEVPCYAFDRELKKHDLNPLIKTSGAYLVDDSDPDTSLFINVCRDIEVLRASSPQVRVCPTGAAACLVRGDRAFDVGRPQEGLKLVSNDRLVLSYVKEGAGQPDFCDGHSPAVTITFVCPSERREGTIPKLTAKSNCRFEIEWVTEYACHRDYLESRSCSLSSAQHDVAVDLQPLSRVEASDSLFYTSEADEYTYYLSICGGSQAPICNKKDAAVCQVKKADSTQVKVAGRPQNLTLRYSDGDLTLIYFGGEECSSGFQRMSVINFECNQTAGNNGRGAPVFTGEVDCTYFFTWDTKYACV	17 ± 1 nM	
bovine prothrombin (natural protein, plasma-purified zymogen; gamma-carboxyglutamate in Gla domain, N-glycosylated, disulfides (by convention, not given)) not shown		Kd [4]: > 2500 nM
